Test results taken from the supplement of paper PMC9170038.

Test system: MS2 coat protein
Test: apparent KD of MS2 coat protein; designed switch direction (-1 OFF switch, 1 ON switch): -1; higher = weaker reporter binding
In short: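 On Illumina chips, designed RNA switches with common flanks were made by stalled E. coli RNA polymerase. Titrations with SNAP-549-labelled MS2 coat protein, doubling from 0.7 or 1.5 nM to 3 µM, were done with no input, with 200 uM small-molecule ligand, or with an oligonucleotide input. Apparent KD is the median per design over clusters, from curve fits of normalised cluster fluorescence.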

[1] = input ligand: microRNA oligo, concentration not stated
[2] = Eterna round: R95, input ligand: FMN 200 uM
[3] = Eterna round: R95, input ligand: microRNA oligo, concentration not stated
[4] = Eterna round: R95, input ligand: none

Sequence	apparent KD of MS2 coat protein (input ligand: FMN 200 uM) [nM]	apparent KD of MS2 coat protein [1] [nM]	apparent KD of MS2 coat protein (input ligand: none) [nM]	apparent KD of MS2 coat protein [2] [nM]	apparent KD of MS2 coat protein [3] [nM]	apparent KD of MS2 coat protein [4] [nM]
GCUUUUUGUGUAGGAUAUCGCGCGCGGCGUGUGUGAGAAGGACAUGAGGAUCACCCAUGUAGCAACGGCGGCGCUGGUGUUGUC [-27, -24 kcal and 18% A] (Eterna round: R96, puzzle: Exclusion NG 1)	16.7	10.7	19.5	–	–	–
GAAAAGGUAGGAUAUACGAAAAAAAAGGGUAGAAUAAAAACACAUGAGGAUCACCCAUGUAGAAGGACCAAAAG [salish99_ex2_r3_077] (puzzle: Exclusion 2)	–	–	–	80.4	31.8	28.9
AGAGAGUCAGGAUAUCGGAGGGCGAGGAGAGGAGAGAGAGACGAGAAGGGACAUGAGGAUCACCCAUGUAGGUG [JR_Exclusion4)Sub018] (puzzle: Exclusion 4)	–	–	–	197	268	400
UCAUACGGUGAGGAUAUCUCCGUUAAAGUAUGUAGAGAAGGCGCUACAUGAGGAUCACCCAUGUUUGUGGGCAG [Ex-6 Malc#10] (puzzle: Exclusion 6)	–	–	–	–	323	–
GUGCAGCGAGGAUAUCCAGACGGGUCCAGUACGUGUCUUGGACUUGAGGAUCACCCAAGUAGAAGGCGUCUCAG [salish99_ex2_r4_611] (Eterna round: R97, puzzle: Exclusion 2)	50.9	–	114	–	–	–
AGAAAGCAAGGAUAUACGAGGAGAAGGUGGAAAGUUAAAGGACAUGAGGAUCACCCAUGUAGAAGGUGCGAGAA [JR_Exclu2_Sub043] (puzzle: Exclusion 2)	–	–	–	79.3	46.2	55.4
GUGGCACAUGAGGAUCACCCAUGUCAGGAUAUCGCGUGGUUUUUUUCGGCCGCGCGCGCGAGAAGGGACGUCUU (puzzle: Exclusion 1)	–	–	–	–	27.2	–
CCGGAACAUGAGGAUCACCCAUGUCAGGAUAUCUCAAAAUCGUCGAAAGACGAUAACAAGAGAAGGGACACCGG [Eli x1 4.30] (Eterna round: R97, puzzle: Exclusion 1)	20.9	–	16.4	–	–	–
UGAGUGCUGCGAGGAUAUACAUGAGGAUCACCCAUGUAAUCGUGUGAGGCAAAGCCUCACACGAUGUAGAAGGCGCAGUACUCU [Mat - Exclusion NG 2 - Mod of JL - D23] (Eterna round: R96, puzzle: Exclusion NG 2)	12.8	11.4	18.2	–	–	–
AGACAGUCAGGAUAUACAUGAGGAUCACCCAUGUUAAGAAAAGAAAGGGCAGGAAGAGGUAGAAGGGACAAGAA [JR_Exclu3_Sub032] (puzzle: Exclusion 3)	–	–	–	28.8	28.5	32.8
GACUGCUGAGGAUAUACAUGAGGAUCACCCAUGUGCUUCAGCAUCGAAAGAUGCAUUGGUAGAAGGUAGUAGUC [LRO-Excl3-06] (puzzle: Exclusion 3)	–	–	–	–	10.9	–
UUUACAAGCUUAUGAUCCCACAUGAGGAUCACCCAUGUUGCUGCCGUGAGGUAGCUUUUAACAUAUGCUCGUCUUAU [JL TOV1 3.39] (Eterna round: R97, puzzle: Sensor, turn-off variant 1)	764	–	838	–	–	–
UGUUGUCGCGCAGGAUAUGUAUGAGGAUCACCCAUAAGAGUAUAUUUACCAUGAGGAUCACCCAUGUAGAAGGGCGGGACAACA [pwkr exNG2 2xF5 1xFMN.11] (Eterna round: R96, puzzle: Exclusion NG 2)	105	46.6	73.6	–	–	–
AAGUACUACAAGCUUCGGGACAUGAGGAUCACCCAUGUUCGUCUUAUUGAUCUAGGUACGCUGACGUACCUAGAUCU [Mat - Sensor v3 - turn-off var 1 - JL Mod - D11] (puzzle: Sensor v3, turn-off variant 1)	–	–	–	14.1	39.2	14.2
